Laboratory results as given in IntAct's records for PubMed 18524952.

B1: DNA replication licensing factor MCM3 (Mus musculus), P25206 (parent)
chain: MAGTVVLDDVELREAQRDYLDFLDDEEDQGIYQNKVRELISDNQYRLIVSVNDLRRKNEKRANRLLNNAFEELVAFQRALKDFVASIDATYAKQYEEFYIGLEGSFGSKHVSPRTLTSCFLSCVVCVEGIVTKCSLVRPKVVRSVHYCPATKKTIERRYSDLTTLVAFPSSSVYPTKDEENNPLETEYGLSVYKDHQTITIQEMPEKAPAGQLPRSVDVILDDDLVDKVKPGDRIQVVGTYRCLPGKKGCYTSGTFRTVLIACNVKQMSKDIQPAFSADDIAKIKKFSKTRSKDVFEQLARSLAPSIHGHDYVKKAILCLLLGGVERELENGSHIRGDINILLIGDPSVAKSQLLRYVLCTAPRAIPTTGRGSSGVGLTAAVTTDQETGERRLEAGAMVLADRGVVCIDEFDKMSDMDRTAIHEVMEQGRVTIAKAGIHARLNARCSVLAAANPVYGRYDQYKTPMENIGLQDSLLSRFDLLFIMLDQMDPEQDREISDHVLRMHQYRAPGEQDGDALPLGSSVDILATDDPDFTQDDQQDTRIYEKHDSLLHGTKKKKEKMVSAAFMKKYIHVAKIIKPTLTQESAAYIAEEYSRLRSQDSMSSDTARTSPVTARTLETLIRLATAHAKARMSKTVDLQDAEEAVELVQYAYFKKVLEKEKKRKKASEDESDLEDEEEKSQEDTEQKRKRRKTHAKDGESYDPYDFSEAETQMPQVHTPKTDDSQEKTDDSQETQDSQKVELSEPRLKAFKAALLEVFQEAHEQSVGMLHLTESINRNREEPFSSEEIQACLSRMQDDNQVMVSEGIVFLI
B2: DNA replication licensing factor MCM3 (Mus musculus), P25206 (parent)
chain: B1 chain
partner: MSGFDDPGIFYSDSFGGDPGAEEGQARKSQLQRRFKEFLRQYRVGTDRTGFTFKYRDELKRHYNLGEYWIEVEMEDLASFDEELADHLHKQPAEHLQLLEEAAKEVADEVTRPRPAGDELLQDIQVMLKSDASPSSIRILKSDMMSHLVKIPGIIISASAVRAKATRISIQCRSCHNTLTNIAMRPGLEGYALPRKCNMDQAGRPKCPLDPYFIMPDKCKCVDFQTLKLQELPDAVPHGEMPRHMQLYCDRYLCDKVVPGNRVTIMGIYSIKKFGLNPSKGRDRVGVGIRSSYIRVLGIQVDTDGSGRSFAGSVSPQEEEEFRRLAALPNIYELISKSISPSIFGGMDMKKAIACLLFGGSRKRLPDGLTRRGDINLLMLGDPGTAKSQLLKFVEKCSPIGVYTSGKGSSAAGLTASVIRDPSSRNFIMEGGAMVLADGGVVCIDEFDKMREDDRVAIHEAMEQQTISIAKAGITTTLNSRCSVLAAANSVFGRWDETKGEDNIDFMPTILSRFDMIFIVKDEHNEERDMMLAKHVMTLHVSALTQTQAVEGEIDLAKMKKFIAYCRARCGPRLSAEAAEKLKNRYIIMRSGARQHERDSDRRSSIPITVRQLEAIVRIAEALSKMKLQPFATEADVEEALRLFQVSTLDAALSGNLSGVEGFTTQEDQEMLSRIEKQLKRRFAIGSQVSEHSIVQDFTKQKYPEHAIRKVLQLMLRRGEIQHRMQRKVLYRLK

Variants of: B1
Settings: with mcm2_mouse Mcm2, P97310
Sequence of mcm2_mouse Mcm2, P97310 (P97310 whole entry): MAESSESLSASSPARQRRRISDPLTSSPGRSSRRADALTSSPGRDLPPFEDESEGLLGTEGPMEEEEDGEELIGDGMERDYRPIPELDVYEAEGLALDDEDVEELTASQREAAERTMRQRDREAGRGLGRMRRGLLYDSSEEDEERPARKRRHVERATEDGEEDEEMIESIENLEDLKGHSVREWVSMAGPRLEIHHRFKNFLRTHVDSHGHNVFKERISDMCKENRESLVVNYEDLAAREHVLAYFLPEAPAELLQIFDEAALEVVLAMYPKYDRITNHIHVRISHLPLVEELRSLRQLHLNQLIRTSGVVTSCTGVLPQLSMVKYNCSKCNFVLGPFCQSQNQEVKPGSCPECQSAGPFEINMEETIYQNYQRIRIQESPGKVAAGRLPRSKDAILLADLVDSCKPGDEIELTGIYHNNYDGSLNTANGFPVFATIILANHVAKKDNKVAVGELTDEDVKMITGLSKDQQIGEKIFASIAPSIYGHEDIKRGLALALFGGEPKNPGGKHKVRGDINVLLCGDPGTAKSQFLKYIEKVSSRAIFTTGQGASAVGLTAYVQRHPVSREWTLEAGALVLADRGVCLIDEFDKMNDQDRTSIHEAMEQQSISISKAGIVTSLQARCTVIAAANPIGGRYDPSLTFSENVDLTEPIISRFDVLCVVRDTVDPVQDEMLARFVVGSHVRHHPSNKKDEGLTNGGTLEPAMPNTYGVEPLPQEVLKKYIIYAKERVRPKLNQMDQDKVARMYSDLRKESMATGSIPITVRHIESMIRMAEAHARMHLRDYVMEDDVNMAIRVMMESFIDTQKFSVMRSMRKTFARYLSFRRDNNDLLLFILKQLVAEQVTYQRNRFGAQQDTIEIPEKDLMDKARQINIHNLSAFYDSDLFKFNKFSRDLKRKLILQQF

| effect of a mutation on the interaction | Variant |
| --- | --- |
| disrupting interaction | S112A |

Variants of: B1
Settings: with mcm7_mouse Mcm7, Q61881
Sequence of mcm7_mouse Mcm7, Q61881 (Q61881 whole entry): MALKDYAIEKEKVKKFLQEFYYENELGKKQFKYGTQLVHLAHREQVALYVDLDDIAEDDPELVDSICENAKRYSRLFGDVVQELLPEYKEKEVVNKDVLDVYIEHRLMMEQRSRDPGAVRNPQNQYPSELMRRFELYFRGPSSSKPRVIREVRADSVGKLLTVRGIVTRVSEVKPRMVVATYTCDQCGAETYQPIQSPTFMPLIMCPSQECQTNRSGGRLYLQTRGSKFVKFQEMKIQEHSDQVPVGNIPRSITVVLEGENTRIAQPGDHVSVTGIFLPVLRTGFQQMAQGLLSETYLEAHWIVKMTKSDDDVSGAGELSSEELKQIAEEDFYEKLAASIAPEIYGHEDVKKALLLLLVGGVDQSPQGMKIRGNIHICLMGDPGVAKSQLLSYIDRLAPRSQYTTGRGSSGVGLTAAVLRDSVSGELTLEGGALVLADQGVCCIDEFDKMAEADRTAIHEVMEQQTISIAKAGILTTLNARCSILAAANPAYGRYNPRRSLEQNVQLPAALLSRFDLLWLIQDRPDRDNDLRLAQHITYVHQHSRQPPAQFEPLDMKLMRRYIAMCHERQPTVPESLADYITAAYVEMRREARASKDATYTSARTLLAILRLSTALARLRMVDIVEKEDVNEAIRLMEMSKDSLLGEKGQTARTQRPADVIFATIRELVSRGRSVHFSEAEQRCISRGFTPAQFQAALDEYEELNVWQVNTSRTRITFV

| effect of a mutation on the interaction | Variant |
| --- | --- |
| disrupting interaction | S112A |

Variants of: B2
Settings: with mcm5_mouse Mcm5, P49718

| effect of a mutation on the interaction | Variant |
| --- | --- |
| disrupting interaction | S112A;T464A;S611A;T719A |
| decreasing interaction | S112A;S611A |
| decreasing interaction | S112A;T719A |
| decreasing interaction | S112A |
